Measurements: paper PMC9872726 (Nature cell biology, 2022)

Target: HSPB1 wild-type (human, UniProt P04792 1-205)
Test: NMR titration

Chain of HSPB1 wild-type (P04792 whole entry): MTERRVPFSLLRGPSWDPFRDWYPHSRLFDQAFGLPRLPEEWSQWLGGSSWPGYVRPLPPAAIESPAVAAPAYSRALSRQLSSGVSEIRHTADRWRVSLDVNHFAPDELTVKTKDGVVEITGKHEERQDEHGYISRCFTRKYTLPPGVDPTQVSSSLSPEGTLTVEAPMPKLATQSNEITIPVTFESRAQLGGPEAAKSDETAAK

B1: TDP-43 LCD (domain or fragment, UniProt Q13148 274-414, looked up)
chain: GRFGGNPGGFGNQGGFGNSRGGGAGLGNNQGSNMGGGMNFGAFSINPAMMAAAQAALQSSWGMMGMLASQQNQSGPSGNNQNQGNMQREPNQAFGSGNNSYSGSNSGAAIGWGSASNAGSGSGFNGGFGSSMDSKSSGWGM
Q: Does B1 bind?
A: Result: binds
